Laboratory results published in paper PMC4422553.

Molecular target: His6-tagged Rev-A IN (reticuloendotheliosis virus strain A integrase) (reticuloendotheliosis virus strain A (Rev-A))
Sequence (P03360 752-1152 limits assumed): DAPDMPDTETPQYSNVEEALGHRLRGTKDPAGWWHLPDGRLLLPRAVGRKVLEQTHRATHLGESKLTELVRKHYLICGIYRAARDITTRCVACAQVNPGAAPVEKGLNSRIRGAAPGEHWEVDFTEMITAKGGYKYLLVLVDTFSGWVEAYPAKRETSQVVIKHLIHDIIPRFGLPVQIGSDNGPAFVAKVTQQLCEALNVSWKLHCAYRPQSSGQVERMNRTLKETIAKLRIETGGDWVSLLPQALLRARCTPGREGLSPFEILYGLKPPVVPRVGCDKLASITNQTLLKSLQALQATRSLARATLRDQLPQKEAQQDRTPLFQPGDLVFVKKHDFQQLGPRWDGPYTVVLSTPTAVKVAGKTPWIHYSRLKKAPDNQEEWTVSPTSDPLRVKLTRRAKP

“BRD4(462-720), C-terminal fragment of human BRD4 that contains the ET domain (from UniProt O60885-2 462-720) (domain or fragment)” was tested, and the concerted integration (DNA strand transfer) activity of Rev-A IN in vitro with 0.05, 0.15, 0.35, 0.5 μM BRD4 (462–720), against the activity without BRD4 protein was 5 fold.
